Results as given in PMC6702220 (Communications Biology, 2019).

Biological target: the molecule itself
Assay: crystal structure; hanging drop, 22 °C; 5 mg/ml PlsX, 1 mM 1-oxohexadecylphosphoramidic acid, 0.08 M Tris-HCl pH 8.0, 0.16 M Li2SO4, 21% PEG 4000, 0.012 mM CYMAL 7, 5% t-butanol; 2.30 Å; two subunits in the asymmetric unit

B1: Bacillus subtilis phosphate acyltransferase PlsX (enzyme, UniProt P71018 1-333, looked up)
chain: MRIAVDAMGGDHAPKAVIDGVIKGIEAFDDLHITLVGDKTTIESHLTTTSDRITVLHADEVIEPTDEPVRAVRRKKNSSMVLMAQEVAENRADACISAGNTGALMTAGLFIVGRIKGIDRPALAPTLPTVSGDGFLLLDVGANVDAKPEHLVQYAIMGSVYSQQVRGVTSPRVGLLNVGTEDKKGNELTKQTFQILKETANINFIGNVEARDLLDDVADVVVTDGFTGNVTLKTLEGSALSIFKMMRDVMTSTLTSKLAAAVLKPKLKEMKMKMEYSNYGGASLFGLKAPVIKAHGSSDSNAVFHAIRQAREMVSQNVAALIQEEVKEEKTDE
notes: Phosphate acyltransferase PlsX, Bacillus subtilis; plsX gene amplified from genomic DNA and inserted into pET28a between NcoI and XhoI; Crystallised with the product analog 1-oxohexadecylphosphoramidic acid (palmitoyl phosphoramide), which was not found in the solved structure; also called B. subtilis PlsX; recombinant PlsX; source: E. coli C43 (DE3), purified (HisTrap HP, gel filtration on …)
  stoichiometry N: 2
